In patent US20240116987A1 (UNIVERSIT CATHOLIQUE DE LOUVAIN, published 2024):
Ends that are not written are not given here.

B1: polypeptide LP-22 (peptide)
peptide: LEDKLKGEMMDLQHGSLFLQTP-NH2
notes: Synthetic peptide bought from Genecust; also called "cluster B1"-derived polypeptide
B2: polypeptide GP-16 (peptide)
peptide: Ac-GEMMDLQHGSLFLQTP-NH2
notes: Synthetic peptide bought from Genecust

Assays:
[1] = biological target: T1, LDH-Htr (truncated human LDH-H, dimeric) (human, UniProt A5A6N7 21-334 (Pan troglodytes entry)); test: MST, labelled LDH-Htr 100 nM, 1.5 s on time, n=3
T1 construct: Recombinant from E. coli; Mainly a dimer, in equilibrium with a weak tetramer; In MST it was labelled with Red-dye-NHS and used at 100 nM; also called hLDH-Htr; truncated LDH-H; not shown: N-terminal 6-His tag from pET-28a (NdeI site)
Description: MST measurements were performed on a Nanotemper® Monolith NT.115 instrument (NanoTemper Technologies®) using Red-dye-NHS fluorescent labelling. […] Measurements were performed in 50 mM sodium phosphate, pH 7.6, and 100 mM NaCl containing 0.01% Tween-20 in standard-treated capillaries (NanoTemper Technologies®). The final concentration of proteins in the assay was 100 nM. Ligands were titrated in 1:1 dilutions following manufacturer's recommendations. Experiments were performed in triplicates using 40% LED power, high MST power, […] and Laser off time 3 s. Poypeptides were evaluated for their thermophoretic pattern, and Kd's were extracted from raw data at a 1.5 s MST on time following the manufacturer's instructions.

[2] = biological target: LDH-5 (tetramer of human LDH-M subunits, LDH-M4) (human, UniProt P00338 2-332); test: cell-based or functional assay

T1 sequence (A5A6N7 21-334): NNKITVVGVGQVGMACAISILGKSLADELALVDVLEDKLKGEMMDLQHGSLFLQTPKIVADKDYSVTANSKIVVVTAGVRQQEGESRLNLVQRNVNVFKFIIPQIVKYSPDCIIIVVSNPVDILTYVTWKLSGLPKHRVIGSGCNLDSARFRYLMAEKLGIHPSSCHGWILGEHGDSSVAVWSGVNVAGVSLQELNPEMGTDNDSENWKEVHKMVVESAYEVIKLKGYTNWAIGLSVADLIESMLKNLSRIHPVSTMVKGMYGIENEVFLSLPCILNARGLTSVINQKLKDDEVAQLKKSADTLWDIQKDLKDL

| Binder | Kd [1] | EC50 of ΔTm (NanoDSF destabilization) of tetrameric LDH-5 (300 nM) [2] |
| --- | --- | --- |
| B1 | 156 µM | – |
| B2 | 240 µM | 262 µM |
